Tests used:
cytokeratin protein [1] = experiment: cytokeratin immunocytochemistry (CAM5.2-FITC) on fixed PC-3 cells; percent of cells stained
cytokeratin protein [2] = experiment: cytokeratin immunocytochemistry (CAM5.2-FITC) on fixed DUMS cells; percent of cells stained
cytokeratin protein [3] = experiment: cytokeratin immunocytochemistry (CAM5.2-FITC) on fixed LNCaP cells; percent of cells stained
cytokeratin protein [4] = experiment: cytokeratin immunocytochemistry (CAM5.2-FITC) on fixed TSU-PRI cells; percent of cells stained

Measured: Percentage of positive staining

FITC conjugated Anti-Cytokeratin (CAM5.2) monoclonal antibody (Becton-Dickinson, Cat. 347653)
100%: all assays above
